According to patent US20050153395A1, “Unique integrin binding site in connective tissue growth factor (CTGF)” (CHILDREN'S HOSPITAL INC., priority 2003, published 2005):

B1: CTGF3-4: C-terminal CTGF fragment comprising modules 3 and 4 (protein)
chain: AYRLEDTFGPDPTMIRANCLVQTTEWSACSKTCGMGISTRVTNDNASCRLEKQSRLCMVRPCEADLEENIKKGKKCIRTPKISKPIKFELSGCTSMKTYRAKFCGVCTDGRCCTPHRTTTLPVEFKCPDGEVMKKNMMFIKTCACHYNCPGDNDIFESLYYRKMYGDMA
B2: Heparinase I: enzyme that acts on highly sulfated heparan sulfate proteoglycans (protein, UniProt Q05819 22-384, looked up)
Heparin lyase I: QQKKSGNIPYRVNVQADSAKQKAIIDNKWVAVGINKPYALQYDDKLRFNGKPSYRFELKAEDNSLEGYAAGETKGRTELSYSYATTNDFKKFPPSVYQNAQKLKTVYHYGKGICEQGSSRSYTFSVYIPSSFPDNATTIFAQWHGAPSRTLVATPEGEIKTLSIEEFLALYDRMIFKKNIAHDKVEKKDKDGKITYVAGKPNGWKVEQGGYPTLAFGFSKGYFYIKANSDRQWLTDKADRNNANPENSEVMKPYSSEYKTSTIAYKMPFAQFPKDCWITFDVAIDWTKYGKEANTILKPGKLDVMMTYTKNKKPQKAHIVNQQEILIGRNDDDGYYFKFGIYRVGNSTVPVTYNLSGYSETAR
B3: CTGF1-4: full length CTGF protein, 38 kDa (protein)
chain: QNCSGPCRCPDEPAPRCPAGVSLVLDGCGCCRVCAKQLGELCTERDPCDPHKGLFCDFGSPANRKIGVCTAKDGAPCIFGGTVYRSGESFQSSCKYQCTCLDGAVGCMPLCSMDVRLPSPDCPFPRRVKLPGKCCEEWVCDEPKDQTVVGPALAAYRLEDTFGPDPTMIRANCLVQTTEWSACSKTCGMGISTRVTNDNASCRLEKQSRLCMVRPCEADLEENIKKGKKCIRTPKISKPIKFELSGCTSMKTYRAKFCGVCTDGRCCTPHRTTTLPVEFKCPDGEVMKKNMMFIKTCACHYNCPGDNDIFESLYYRKMYGDMA

Tests used:
[1] = tested on: pancreatic stellate cells (PSC); test: PSC adhesion assay on coated wells; type: cell-based, rat; conditions: coated at 2 μg/ml
From the text: Rat PSCs were isolated by a modification of the method described by Phillips et al., Gut; 52:677-82, 2003. Briefly, pancreatic tissue was digested in situ with 0.03% collagenase P (Roche, Indianapolis, Ind.) in HBSS by perfusion through the thoracic aorta. This protocol was approved by the Institutional Animal Care and Use Committee of Children's Research Institute, Columbus, Ohio. The tissue was pooled, minced with scissors, and then digested with 0.05% collagenase P, 0.02% protease XIV (Sigma, St. Louis), and DNase I (Roche, Indianapolis, Ind.) in HBSS. The resulting cell suspension was centrifuged in a 12% Optiprep gradient at 1400 g for 14 minutes. Stellate cells separated into a hazy band just above the interface of a the gradient and the aqueous buffer. This band was harvested, and the cells washed and resuspended in DMEM supplemented with 25 mM Hepes buffer, 10% FBS, and 100 U/ml penicillin in, 100 μg/ml streptomycin. The, cells were maintained at 37° C. in a humidified atmosphere of 5% CO2/95% air.
The ability of activated PSC to adhere to non-tissue culture plastic microtiter wells coated with recombinant CTGF1-4, CTGF3-4 or CTGF4 was investigated. The solid phase binding assay was carried out as described in Example 2. […] To assess the possibility that CTGF-mediated PSC adhesion involved cell surface integrins, the effect of divalent cations on cell adhesion was examined, as described in Example 2. […]
Because CTGF is a heparin-binding protein, this property was further investigated.
To identify the peptides that bind to PSCs, cell adhesion assays were carried out as described in Example 3.
To further investigate the peptide binding, P2 or P5 (10 μM) or vehicle buffer alone (no add) were added to PSC cell suspensions for 30 minutes at room temperature.

integrin α5β1 = integrin α5β1 (Homo sapiens, UniProt P05556+P08648); test: Solid phase ELISA of integrin α5β1 binding; conditions: for binding to integrin α5β1: coated at 2 μg/ml, 1 μg/ml integrin
Sequence of integrin α5β1 (P08648 42-894 limits assumed): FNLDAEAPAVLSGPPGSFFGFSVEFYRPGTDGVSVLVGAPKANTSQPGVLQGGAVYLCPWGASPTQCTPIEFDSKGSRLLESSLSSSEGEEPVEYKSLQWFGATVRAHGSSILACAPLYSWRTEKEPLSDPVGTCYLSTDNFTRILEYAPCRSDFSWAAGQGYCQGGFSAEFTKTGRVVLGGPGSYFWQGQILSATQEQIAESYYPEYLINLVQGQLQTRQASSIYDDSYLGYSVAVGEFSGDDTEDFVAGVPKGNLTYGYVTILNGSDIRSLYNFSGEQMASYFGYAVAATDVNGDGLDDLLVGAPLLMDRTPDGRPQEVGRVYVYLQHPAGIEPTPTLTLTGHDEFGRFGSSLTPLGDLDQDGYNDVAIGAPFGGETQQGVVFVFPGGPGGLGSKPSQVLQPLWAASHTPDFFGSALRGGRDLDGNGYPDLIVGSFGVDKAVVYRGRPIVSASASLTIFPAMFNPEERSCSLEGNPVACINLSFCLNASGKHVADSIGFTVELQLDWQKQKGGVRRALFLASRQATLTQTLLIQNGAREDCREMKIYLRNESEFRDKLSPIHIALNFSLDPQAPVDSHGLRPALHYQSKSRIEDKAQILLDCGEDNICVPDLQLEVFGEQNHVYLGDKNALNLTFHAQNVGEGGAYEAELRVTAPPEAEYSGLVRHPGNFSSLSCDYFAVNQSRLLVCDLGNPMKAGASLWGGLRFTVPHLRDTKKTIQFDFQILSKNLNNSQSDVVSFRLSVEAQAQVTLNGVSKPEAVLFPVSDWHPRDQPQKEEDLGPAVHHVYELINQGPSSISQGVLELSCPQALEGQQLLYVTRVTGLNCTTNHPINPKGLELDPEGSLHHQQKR
Sequence of integrin α5β1 (P08648 895-1049 partner limits assumed): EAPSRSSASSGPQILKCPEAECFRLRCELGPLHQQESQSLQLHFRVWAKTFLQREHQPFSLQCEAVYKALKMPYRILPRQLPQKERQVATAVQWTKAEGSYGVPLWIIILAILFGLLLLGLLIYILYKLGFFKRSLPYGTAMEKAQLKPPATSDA
Sequence of integrin α5β1 (P05556 21-798): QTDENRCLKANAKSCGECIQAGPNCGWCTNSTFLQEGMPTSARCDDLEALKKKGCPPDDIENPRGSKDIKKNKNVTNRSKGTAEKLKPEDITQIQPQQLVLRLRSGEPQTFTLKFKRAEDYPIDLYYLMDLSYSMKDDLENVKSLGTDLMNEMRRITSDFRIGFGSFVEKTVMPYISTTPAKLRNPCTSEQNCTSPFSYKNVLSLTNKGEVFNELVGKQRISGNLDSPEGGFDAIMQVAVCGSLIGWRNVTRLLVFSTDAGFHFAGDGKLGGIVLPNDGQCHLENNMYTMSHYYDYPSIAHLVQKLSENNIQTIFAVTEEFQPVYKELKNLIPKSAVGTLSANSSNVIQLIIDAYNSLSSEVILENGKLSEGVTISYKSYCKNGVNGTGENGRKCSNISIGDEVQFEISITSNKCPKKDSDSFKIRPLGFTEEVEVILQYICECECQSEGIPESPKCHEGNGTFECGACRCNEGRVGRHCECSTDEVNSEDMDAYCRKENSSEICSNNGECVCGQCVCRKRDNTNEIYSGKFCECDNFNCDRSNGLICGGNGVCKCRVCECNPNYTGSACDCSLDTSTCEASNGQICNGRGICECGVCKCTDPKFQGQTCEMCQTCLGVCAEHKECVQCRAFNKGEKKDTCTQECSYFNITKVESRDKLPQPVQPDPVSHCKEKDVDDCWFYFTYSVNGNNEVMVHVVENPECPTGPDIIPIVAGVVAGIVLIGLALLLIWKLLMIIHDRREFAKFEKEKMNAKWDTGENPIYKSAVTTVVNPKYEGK
Procedure: In a second approach, a solid phase binding assay was used in which CTGF1-4 or FN were individually coated onto microtiter wells that were subsequently incubated with purified integrin α5β1. The presence of immobilized integrin α5β1 was detected by ELISA using an anti-integrin α5β1 antibody similar to the methods described in Example 3 above. In addition, CTGF1-4 bound to integrin α5β1 in a dose-dependent manner, with maximal binding at 2 μg/ml CTGF. This level of CTGF1-4 (2 μg/ml) binding was the same as that elicited by 2 μg/ml FN, a well known ligand of integrin α5β1. In a similar experiment, 2 μg/ml of CTGF1-4;CTGF3-4 or CTGF4 were individually precoated onto microtiter wells. Using the solid-phase assay, integrin α5β1 bound to CTGF1-4, CTGF3-4 or CTGF4 See FIG. 5 (Panel B).
To directly analyze whether α5β1 integrin binds to CTGF4, microtiter wells coated with CTGF4 (2 μg/ml) or FN (4 μg/ml) were used in an ELISA assay to detect integrin binding, as described in Example 3. For these assays, 1 μg/ml integrin α5β1, alone or in the presence of 35 μM of P2peptide (CTGF[257-272]) and 35 μM of P5 peptide (CTGF [285-291]), were added to the precoated plates. […] The binding between CTGF4 and integrin α5 β1 was blocked by peptide P5 (CTGF [285-291]) or peptide P2 (CTGF[257-272]). […]

PSCs [2] = test: PSC chemotaxis (migration) assay in culture insert; type: cell-based, rat; conditions: substance in lower chamber
Procedure: To examine whether CTGF plays a role in PSC migration, a chemotaxis assay was carried out in which the migratory behavior of PSCs in the upper chamber of a culture insert was assessed following addition of CTGF to the lower chamber. […] PSC migration was also promoted by FN, PDGF or TGF-β1.

[3] = tested on: hepatic stellate cells (HSC); test: HSC adhesion assay on coated wells (CyQUANT fluorescence); type: cell-based, rat
Procedure: CTGF4 is known to be expressed in hepatic stellate cells (HSC) and to induce proliferation and extracellular matrix (ECM) production in these cells. (Williams et al., J Hepatol 32, 754-761, 2000; Paradis et al., Lab Invest 82, 767-774, 2002). The following experiments were carried out to determine if HSCs adhere to CTGF. HSCs were isolated from normal Sprague-Dowley rate by sequential perfusion with pronase/collagenase and purified by density gradient separation as described in Vyas et al. (Gastroenterology 109: 889-898, 1995).
The cells were subsequently detached using 1 mM EDTA PBS (137 mM NaCl, 2.7 mM KCl, 4.3 mM Na2HPO4, 1.4 mM KH2PO4, pH 7.3), washed twice in DMEM and resuspended in serum free medium containing 0.5% BSA. The cells-were plated (1.25×10^4 cells/well) in a 96 well plate coated with one of the following: 2 μg/ml CTGF isoform (CTGF1-4, CTGF3-4, CTGF4), 1 μg/ml laminin, or 4 μg/ml vitronectin and incubated for 20 minutes at 37° C. Subsequently the cells were washed with PBS and the adherent cells were fixed with 10% formalin and stained with CyQUANT GR dye/cell lysis buffer (Molecular Probes , Eugene, Oreg.) according to the manufacturer's instructions. The number of cells that adhered to CTGF isoforms or ECM protein was quantified by measuring the sample fluorescence intensity at Ex/Em: 480/520 nm using a micro-plate reader (CytoFluor™ 2350).
To determine if the CTGF-mediated HSC adhesion was carried out through integrin receptors, the experiment described above were carried out in the presence and absence of 10 mM EDTA. […] It is widely believed that Mn^2+ induces conformational shifts that mimic the physiological activation of β1 and β3 integrins (Roberts et al., J Biol Chem 278: 1975-1985, 2003, van der Pauw et al., J Periodontal Res 37: 317-323, 2002) as Mn^2+-induced activation leads to enhanced ligand-binding affinity and cell adhesion (Mould et al., J Biol Chem 277: 19800-19805, 2002, Loftus & Liddington J Clin Invest 100: S77-81, 1997, Lin et al., J Biol Chem 272: 14236-14243, […]). […]

PSCs [4] = test: PSC DNA synthesis, [3H]thymidine incorporation; type: cell-based, rat; conditions: 24 hours; CTGF1-4 effect in 0.1% serum, not in serum-free medium
Procedure: To measure the effect of CTGF on cell proliferation, DNA synthesis was measured by ^3H incorporation in PSCs. The cells were incubated for 24 hours with 0.2 μCi [^3H] thymidine in each well (24-well plate). The incorporation of [^3H] thymidine into PSC DNA was determined using a scintillation counter after the cells had been washed with PBS, fixed with 10% methanol, treated with cold 5% trichloroacetic acid, and lysed in 0.3 N NaOH.

collagen I mRNA = test: Collagen I mRNA expression in PSCs; type: cell-based, rat

| Molecule | PSC adhesion supported by the coated substance [1] | binding to integrin α5β1 (integrin α5β1) | PSC migration (PSCs [2]) | inhibition of HSC adherence to CTGF[257-272] ([3]; peptide-coated wells, heparin 2 μg/ml) | inhibition of CTGF4-mediated HSC adhesion ([3]; wells coated 2 μg/ml CTGF4, EDTA 10 mM, GRGDsp 1 mM, Echistatin 2 μM, antibody/IgG 25 μg/ml, heparin 2 μg/ml) | inhibition of vitronectin-mediated HSC adhesion ([3]; wells coated 4 μg/ml vitronectin) | PSC proliferation (DNA synthesis) (PSCs [4]) | binding to integrin α5β1, maximal binding at (integrin α5β1; coated protein) | collagen I mRNA expression in PSCs (collagen I mRNA) |
| --- | --- | --- | --- | --- | --- | --- | --- | --- | --- |
| B1 | significantly promoted | bound | induced PSC migration |  |  |  |  |  |  |
| B2 |  |  |  | abrogated | unable to adhere | adhered to vitronectin |  |  |  |
| B3 | significantly promoted | bound | induced PSC migration |  |  |  | significantly enhanced | 2 µg/mL | significantly increased |
